For orientation: IC50 means the point on the concentration scale where inhibition reaches its midpoint.

The source of these data is patent US20240132578A1.

Assay in all cases: cell-based or functional assay
In assay [1] the target is HIV-1 Env of isolate MGRM-D-029 (clade D pseudovirus) (HIV-1).
Assay [2] addresses HIV-1 Env of isolate MGRM-A-001 (clade A pseudovirus) (HIV-1).
Assay [3] deals with HIV-1 Env of pseudovirus MGRM-F1-017 (clade F) (HIV-1).
In assay [4] the target is HIV-1 envelope glycoprotein (Env) of isolate MGRM-C-022 (HIV-1).
The target of assay [5] is HIV-1 IAVI-C18 envelope (Env) on pseudovirus (HIV-1).
The target of assay [6] is HIV-1 Env of isolate MGRM-Chronic-B-002, clade B (HIV-1).
Assay [7] concerns the target HIV-1 MGRM-AE-008 Env (pseudovirus) (HIV-1).
For assay [8], the target named is HIV-1 Env of isolate 93RW029 (clade A pseudovirus) (HIV-1).
For assay [9], the target named is HIV-1 CMU02 Env (pseudovirus) (HIV-1).
Assay [10] concerns the target HIV-1 Env of isolate MGRM-A-014 (clade A pseudovirus) (HIV-1).
Assay [11] deals with HIV-1 Env of isolate 94KE105 (listed under clade A; pseudovirus) (HIV-1).
The target in assay [12] is HIV-1 envelope glycoprotein (Env) of isolate LAVIC_18 (HIV-1).
Assay [13] addresses HIV-1 Env of isolate MGRM-A-011 (clade A pseudovirus) (HIV-1).
Assay [14] has as its target HIV-1 Env of isolate MGRM-A-010 (clade A pseudovirus) (HIV-1).
For assay [15], the target named is HIV-1 Env of pseudovirus MGRM-G-016 (HIV-1).
In assay [16] the target is HIV-1 Env of isolate PVO.4 (Acute), clade B (HIV-1).
Assay [17] has as its target HIV-1 Env of isolate MGRM-D-005 (clade D pseudovirus) (HIV-1).
In assay [18] the target is HIV-1 92TH021 Env (pseudovirus) (HIV-1).
Assay [19] has as its target HIV-1 Env of isolate MGRM-F1-017 (HIV-1).
Assay [20] deals with HIV-1 Env of isolate MGRM-AG-005 (pseudovirus) (HIV-1).
The target of assay [21] is HIV-1 Env of isolate 92TH021 (pseudovirus) (HIV-1).
For assay [22], the target named is HIV-1 JR-CSF Env N396A (HIV-1 (isolate JR-CSF)) (UniProt P20871).
Assay [23] concerns the target HIV-1 93IN905 Env (HIV-1).
Assay [24] addresses HIV-1 envelope glycoprotein (Env) of isolate MGRM-Chronic-B-017, on pseudovirus (HIV-1).
Assay [25] concerns the target HIV-1 MGRM-C-026 Env (HIV-1).
Assay [26] addresses HIV-1 JR-CSF Env I414A (HIV-1 (isolate JR-CSF)) (UniProt P20871).
The target of a further assay is HIV-1 JRCSF Env (HIV-1) (UniProt P20871).
Assay [27] has as its target HIV-1 envelope glycoprotein (Env) of isolate 94UG103, subtype A (HIV-1).
The target in assay [28] is HIV-1 envelope glycoprotein (Env) of isolate MGRM-Chronic-B-018, on pseudovirus (HIV-1).
In assay [29] the target is HIV-1 envelope glycoprotein (Env) of isolate MG RM-A-008, subtype A (HIV-1).
The target of assay [30] is HIV-1 JR-CSF Env T413A (HIV-1 (isolate JR-CSF)) (UniProt P20871).

Sequence of 1443_C16 (PG16) (TCN-116) (antibody) (VH): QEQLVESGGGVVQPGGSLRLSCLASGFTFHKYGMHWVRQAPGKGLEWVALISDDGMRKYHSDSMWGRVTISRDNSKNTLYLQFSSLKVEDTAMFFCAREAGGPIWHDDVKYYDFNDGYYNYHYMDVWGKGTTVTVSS
Sequence of 1443_C16 (PG16) (TCN-116) (antibody) (VL): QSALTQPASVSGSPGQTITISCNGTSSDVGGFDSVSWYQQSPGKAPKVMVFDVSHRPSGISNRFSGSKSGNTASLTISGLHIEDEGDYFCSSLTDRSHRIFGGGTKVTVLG

With b12 (antibody), the IC50, pseudovirus neutralization in [1] and in assay [17] was greater than 50 µg/mL each time. Besides, the IC50 (µg/ml), pseudovirus neutralization in assay [2] is greater than 50 µg/mL; in assay [4], greater than 50 µg/mL; in assay [6] it was 0.86 µg/mL; in [7] it was greater than 50 µg/mL; in [8] it was greater than 50 µg/mL; in [9], 29.3 µg/mL. Also, the IC50 (µg/ml), pseudovirus neutralization in [10] was greater than 50 µg/mL; in assay [11] it was greater than 50 µg/mL; in assay [12], greater than 50 µg/mL; in assay [13], 4.01 µg/mL; in [14], greater than 50 µg/mL; in assay [15], greater than 50 µg/mL. Also, in assay [16], the IC50 (µg/ml), pseudovirus neutralization was greater than 50 µg/mL. The same substance came in with an IC50 in assay [3] greater than 50 µg/mL. Also, in assay [5], the neutralization IC50 was greater than 50 µg/mL.

In the case of 1443_C16 (PG16) (TCN-116) (antibody), the IC50, pseudovirus neutralization was greater than 50 µg/mL in assay [1] and 19.7 µg/mL in assay [17]. Further, the IC50 (µg/ml), pseudovirus neutralization was greater than 50 µg/mL in [2]; 0.25 µg/mL in [4]; 3.06 µg/mL in [6]; 3.25 µg/mL in assay [7]; 0.1 µg/mL in assay [18]; 3.83 µg/mL in [8]. The IC50 (µg/ml), pseudovirus neutralization in assay [9] was 43.6 µg/mL; in assay [10] it was 20.3 µg/mL; in assay [11], 6.13 µg/mL; in assay [12], 0.02 µg/mL; in assay [13] it was 0.24 µg/mL; in assay [14], 0.004 µg/mL. The IC50 (µg/ml), pseudovirus neutralization came to 11.3 µg/mL in assay [15] and 5.43 µg/mL in assay [16]. Also, the IC50 in assay [3] is greater than 50 µg/mL. In assay [5], this substance yielded a neutralization IC50 of 0.0067 µg/mL.

Regarding PGV04 (antibody), the IC50 (µg/mL), pseudovirus neutralization in assay [19] is 2.38 µg/mL; in assay [20], 0.027 µg/mL; in assay [21] it was 1.29 µg/mL.

As for 2F5 (antibody), the IC50, pseudovirus neutralization in assay [1] and in assay [17] was greater than 50 µg/mL each time. Also, the IC50 (µg/ml), pseudovirus neutralization in assay [2] is greater than 50 µg/mL; in [4], greater than 50 µg/mL; in assay [6], 1.25 µg/mL; in assay [7], greater than 50 µg/mL; in assay [8], greater than 50 µg/mL; in [9], 0.6 µg/mL. Further, the IC50 (µg/ml), pseudovirus neutralization is 1.43 µg/mL in assay [10]; greater than 50 µg/mL in assay [11]; greater than 50 µg/mL in [12]; greater than 50 µg/mL in [13]; 20.8 µg/mL in assay [14]; 16.8 µg/mL in assay [15]. For the same substance, the IC50 (µg/ml), pseudovirus neutralization in [16] is greater than 50 µg/mL. Moreover, the IC50 in [3] was greater than 50 µg/mL. In assay [5], the neutralization IC50 was greater than 50 µg/mL.

For the substance 4858_P08 (PGT-123) (antibody), the Fold IC50 increase relative to wild-type (pseudovirus neutralization) in [22] is 1.2 fold; in assay [26], 0.3 fold; in [30], 0.4 fold. In addition, the IC50, pseudovirus neutralization is 0.0071 µg/mL in assay [23]; greater than 50 µg/mL in assay [24]; 0.0031 µg/mL in assay [25]; 0.0423 µg/mL in the assay with HIV-1 JRCSF Env (HIV-1); 0.678 µg/mL in assay [27]; greater than 50 µg/mL in assay [28]. The same substance had an IC50, pseudovirus neutralization in [29] greater than 50 µg/mL. In assay [20], this substance gave an IC50 (µg/mL), pseudovirus neutralization of 0.149 µg/mL.

As to 5141_B17 (PGT-126) (antibody), the Fold IC50 increase relative to wild-type (pseudovirus neutralization) in assay [22] came to 1.7 fold; in [26] it was 0.4 fold; in [30] it was 0.7 fold. The IC50, pseudovirus neutralization is 0.0194 µg/mL in [23]; greater than 50 µg/mL in assay [24]; 0.0076 µg/mL in assay [25]; 0.0061 µg/mL in the assay with HIV-1 JRCSF Env (HIV-1); 0.008 µg/mL in assay [27]; 0.052 µg/mL in assay [28]. In assay [29], this substance registered an IC50, pseudovirus neutralization greater than 50 µg/mL. In assay [20], this substance came in with an IC50 (µg/mL), pseudovirus neutralization of 1.21 µg/mL.

4838_L06 (PGT-121) (antibody): the IC50, pseudovirus neutralization is greater than 50 µg/mL in assay [24], 2.52 µg/mL in assay [27], greater than 50 µg/mL in assay [28] and greater than 50 µg/mL in assay [29].

Consider 5145_B14 (PGT-127) (antibody), for which the figures for the Fold IC50 increase relative to wild-type (pseudovirus neutralization) in [22], in assay [26] and in [30] were 2.4 fold, 2.2 fold and 0.8 fold, respectively. The IC50, pseudovirus neutralization was greater than 50 µg/mL in [24], 0.017 µg/mL in assay [27], 1.9 µg/mL in assay [28] and greater than 50 µg/mL in assay [29]. In assay [20], this substance displayed an IC50 (µg/mL), pseudovirus neutralization greater than 50 µg/mL.

In the case of 5123_A06 (PGT-125) (antibody), the figures for the Fold IC50 increase relative to wild-type (pseudovirus neutralization) in assay [22], in [26] and in [30] were 1.6 fold, 0.3 fold and 0.5 fold, respectively. Moreover, the IC50, pseudovirus neutralization in [23] is 0.0137 µg/mL; in assay [24] it was greater than 50 µg/mL; in [25], 0.0106 µg/mL; in the assay with HIV-1 JRCSF Env (HIV-1), 0.006 µg/mL; in assay [27], 0.008 µg/mL; in assay [28] it was greater than 50 µg/mL. The IC50, pseudovirus neutralization in [29] was greater than 50 µg/mL. Further, the Neutralization by PGT-125, IC50 in [18] is 0.0066 µg/mL; in assay [9], greater than 10 µg/mL. Besides, the Neutralization by PGT-125, IC80 was 0.0292 µg/mL in assay [18] and greater than 10 µg/mL in assay [9]. Further, the Neutralization by PGT-125, IC90 in assay [18] was 0.0701 µg/mL; in assay [9] it was greater than 10 µg/mL. The Neutralization by PGT-125, IC95 in [18] was 0.157 µg/mL; in assay [9], greater than 10 µg/mL. In [20], this substance gave an IC50 (µg/mL), pseudovirus neutralization greater than 50 µg/mL.

Regarding 4877_D15 (PGT-122) (antibody), the IC50, pseudovirus neutralization in assay [23] was 0.0138 µg/mL; in assay [24], 5.66 µg/mL; in [25] it was 0.0089 µg/mL; with HIV-1 JRCSF Env (HIV-1), 0.0727 µg/mL; in [27], 2.04 µg/mL; in assay [28], greater than 50 µg/mL. The substance also yielded an IC50, pseudovirus neutralization in assay [29] greater than 50 µg/mL. Further, the IC50 (µg/mL), pseudovirus neutralization in assay [20] was determined as 33.9 µg/mL.

As for 1496_C09 (PG9) (TCN-109) (antibody), the IC50, pseudovirus neutralization in assay [23] stood at 0.048 µg/mL; in assay [25] it was 0.113 µg/mL; in the assay with HIV-1 JRCSF Env (HIV-1), 0.0048 µg/mL; in assay [17] it was 0.59 µg/mL. In addition, the IC50 (µg/ml), pseudovirus neutralization in assay [4] was 0.19 µg/mL; in [6], 1.41 µg/mL; in assay [7], 10.6 µg/mL; in [18] it was 0.09 µg/mL; in assay [8], 1.19 µg/mL; in assay [9] it was 7.69 µg/mL. For the same substance, the IC50 (µg/ml), pseudovirus neutralization in [10] came out at 0.62 µg/mL; in assay [11] it was 29.6 µg/mL; in assay [12], 0.1 µg/mL; in [15], 0.4 µg/mL; in [16] it was 4.01 µg/mL. Also, in assay [5], the neutralization IC50 was 0.0535 µg/mL. In assay [21], the IC50 (µg/mL), pseudovirus neutralization is 0.059 µg/mL.
